Laboratory results published in paper PMC5523955.

Target: NCP^H2AK15ub (nucleosome core particle with linked H2A-H2B enzymatically ubiquitylated at H2A Lys15) (human) (UniProt P0CG47)
Assay: ITC

## RAD18 (aa 198-240) (from UniProt Q9NS91 198-240) (domain or fragment)
  Kd: 25.2 nM
